Results as given in patent US5866538A, “Insulin preparations containing NaCl” (Novo Nordisk A/S, priority 1996, dated 1999).

Assays:
[1] = Stability (formation of dimers and polymers) of B29-N^ε-myristoyl des(B30) human insulin solutions, glycerol or mannitol, varying NaCl (Example VI); type: physicochemical; conditions: pH 7.5
Experimental: Solutions containing 0.6 mM B29-N^ε -myristoyl des(B30) human insulin, 1.5 mg/ml phenol and 1.72 mg/ml m-cresol, 16 mg/ml glycerol or 36 mg/ml mannitol, 13.1 μg/ml Zn, 7 mM sodium phosphate and varying amounts of sodium chloride were prepared. pH was adjusted to 7.5. Stability data (formation of dimers and polymers) after storage at 25° C. for 13 weeks or 37° C. for 8 weeks are presented in the following table 8.

[2] = Stability (formation of dimers and polymers) of B29-N^ε-myristoyl-des(B30) human insulin solutions, varying NaCl, mannitol and phenol (Example V); type: physicochemical; conditions: pH 7.4
Experimental: Solutions containing 0.6 mM B29-N^ε -myristoyl-des(B30) human insulin, 1.5 or 4.0 mg/ml phenol, 5 mM sodium phosphate, 13.1 μg/ml Zn, and varying amounts of sodium chloride and mannitol were prepared. pH was adjusted to 7.4. Stability data (formation of dimers and polymers) after storage at 25° C. for 13 weeks or 37° C. for 8 weeks are presented in the following table 7.

B29-N^ε -myristoyl-des(B30) human insulin
Di- & polymers (%) formed ([1]; 8 weeks at 37° C., NaCl 5 mM, glycerol 16 mg/ml): 2.55% | Di- & polymers (%) formed ([1]; 8 weeks at 37° C., NaCl 5 mM, mannitol 36 mg/ml): 2.28% | Di- & polymers (%) formed ([1]; 8 weeks at 37° C., NaCl 10 mM, glycerol 16 mg/ml): 2.25% | Di- & polymers (%) formed ([1]; 8 weeks at 37° C., NaCl 10 mM, mannitol 36 mg/ml): 1.90% | Di- & polymers (%) formed ([1]; 8 weeks at 37° C., NaCl 20 mM, glycerol 16 mg/ml): 1.82% | Di- & polymers (%) formed ([1]; 8 weeks at 37° C., NaCl 20 mM, mannitol 36 mg/ml): 1.61% | Di- & polymers (%) formed ([1]; 8 weeks at 37° C., NaCl 30 mM, glycerol 16 mg/ml): 1.83% | Di- & polymers (%) formed ([1]; 8 weeks at 37° C., NaCl 40 mM, glycerol 16 mg/ml): 1.78% | Di- & polymers (%) formed ([1]; 8 weeks at 37° C., NaCl 40 mM, mannitol 36 mg/ml): 1.56% | Di- & polymers (%) formed ([1]; 8 weeks at 37° C., NaCl 50 mM, glycerol 16 mg/ml): 1.68% | Di- & polymers (%) formed ([1]; 13 weeks at 25° C., NaCl 5 mM, glycerol 16 mg/ml): 1.08% | Di- & polymers (%) formed ([1]; 13 weeks at 25° C., NaCl 5 mM, mannitol 36 mg/ml): 1.05% | Di- & polymers (%) formed ([1]; 13 weeks at 25° C., NaCl 10 mM, glycerol 16 mg/ml): 0.98% | Di- & polymers (%) formed ([1]; 13 weeks at 25° C., NaCl 10 mM, mannitol 36 mg/ml): 0.84% | Di- & polymers (%) formed ([1]; 13 weeks at 25° C., NaCl 20 mM, glycerol 16 mg/ml): 0.80% | Di- & polymers (%) formed ([1]; 13 weeks at 25° C., NaCl 20 mM, mannitol 36 mg/ml): 0.71% | Di- & polymers (%) formed ([1]; 13 weeks at 25° C., NaCl 30 mM, glycerol 16 mg/ml): 0.80% | Di- & polymers (%) formed ([1]; 13 weeks at 25° C., NaCl 40 mM, glycerol 16 mg/ml): 0.79% | Di- & polymers (%) formed ([1]; 13 weeks at 25° C., NaCl 40 mM, mannitol 36 mg/ml): 0.70% | Di- & polymers (%) formed ([1]; 13 weeks at 25° C., NaCl 50 mM, glycerol 16 mg/ml): 0.72% | Di- & polymers (%) formed ([2]; 8 weeks at 37° C., NaCl 20 mM, mannitol 31 mg/ml, phenol 1.5 mg/ml): 0.77% | Di- & polymers (%) formed ([2]; 8 weeks at 37° C., NaCl 20 mM, mannitol 31 mg/ml, phenol 4.0 mg/ml): 0.77% | Di- & polymers (%) formed ([2]; 8 weeks at 37° C., NaCl 50 mM, mannitol 22 mg/ml, phenol 1.5 mg/ml): 0.71% | Di- & polymers (%) formed ([2]; 8 weeks at 37° C., NaCl 50 mM, mannitol 22 mg/ml, phenol 4.0 mg/ml): 0.71% | Di- & polymers (%) formed ([2]; 8 weeks at 37° C., NaCl 75 mM, mannitol 13 mg/ml, phenol 1.5 mg/ml): 0.65% | Di- & polymers (%) formed ([2]; 8 weeks at 37° C., NaCl 75 mM, mannitol 13 mg/ml, phenol 4.0 mg/ml): 0.70% | Di- & polymers (%) formed ([2]; 8 weeks at 37° C., NaCl 100 mM, mannitol 5 mg/ml, phenol 1.5 mg/ml): 0.66% | Di- & polymers (%) formed ([2]; 8 weeks at 37° C., NaCl 100 mM, mannitol 5 mg/ml, phenol 4.0 mg/ml): 0.68% | Di- & polymers (%) formed ([2]; 13 weeks at 25° C., NaCl 20 mM, mannitol 31 mg/ml, phenol 1.5 mg/ml): 0.40% | Di- & polymers (%) formed ([2]; 13 weeks at 25° C., NaCl 20 mM, mannitol 31 mg/ml, phenol 4.0 mg/ml): 0.42% | Di- & polymers (%) formed ([2]; 13 weeks at 25° C., NaCl 50 mM, mannitol 22 mg/ml, phenol 1.5 mg/ml): 0.35% | Di- & polymers (%) formed ([2]; 13 weeks at 25° C., NaCl 50 mM, mannitol 22 mg/ml, phenol 4.0 mg/ml): 0.37% | Di- & polymers (%) formed ([2]; 13 weeks at 25° C., NaCl 75 mM, mannitol 13 mg/ml, phenol 1.5 mg/ml): 0.34% | Di- & polymers (%) formed ([2]; 13 weeks at 25° C., NaCl 75 mM, mannitol 13 mg/ml, phenol 4.0 mg/ml): 0.39% | Di- & polymers (%) formed ([2]; 13 weeks at 25° C., NaCl 100 mM, mannitol 5 mg/ml, phenol 1.5 mg/ml): 0.31% | Di- & polymers (%) formed ([2]; 13 weeks at 25° C., NaCl 100 mM, mannitol 5 mg/ml, phenol 4.0 mg/ml): 0.37%
